The text below walks through data of patent US20210347873A1 (SHANGHAI PHARMAEXPLORER, published 2021).

Experiment [1] has as its target T1, human APRIL protein (human, UniProt O75888 105-250, limits assumed).
T1 construct: Bought protein; also called recombinant APRIL protein
T1 sequence (looked up): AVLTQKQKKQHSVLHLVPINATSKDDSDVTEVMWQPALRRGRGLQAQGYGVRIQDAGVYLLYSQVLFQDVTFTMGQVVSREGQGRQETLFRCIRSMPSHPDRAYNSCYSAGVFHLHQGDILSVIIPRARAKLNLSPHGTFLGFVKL
In words: ELISA, coated APRIL; antibody 0.00427 nM. In a few lines:
(§1)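 Anti-BLyS antibodies were tested for cross-reactivity on human APRIL coated at 1.0 μg/mL in PBS overnight at 4 °C, blocked with PBS/0.05% Tween20/1% BSA at 37 °C for 2 h. Antibodies were incubated 1 h at 37 °C, then HRP secondary 1 h at 37 °C; TMB 5 min at RT, HCl stop, A450 read.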
A general note: In an ELISA, binding on a coated surface is turned into a signal by an enzyme label.

The next experiment addresses mouse BLyS protein (mouse, UniProt Q9WU72 69-309). The experiment in a line: cell-based or functional assay.
For experiment [2], the target named is T1, human APRIL protein. The experiment in a line: ELISA, coated APRIL; antibody 2.67 nM. An outline of the steps:
as §1

Experiment [3] concerns the target T2, cynomolgus BLyS (full length, arginine to histidine at position 132) on CHO-K1 cells (cynomolgus, UniProt Q9Y275 1-285 (human entry)).
T2 construct: also called cyno BLyS; CHO-K1 cynoBLyS
T2 chain: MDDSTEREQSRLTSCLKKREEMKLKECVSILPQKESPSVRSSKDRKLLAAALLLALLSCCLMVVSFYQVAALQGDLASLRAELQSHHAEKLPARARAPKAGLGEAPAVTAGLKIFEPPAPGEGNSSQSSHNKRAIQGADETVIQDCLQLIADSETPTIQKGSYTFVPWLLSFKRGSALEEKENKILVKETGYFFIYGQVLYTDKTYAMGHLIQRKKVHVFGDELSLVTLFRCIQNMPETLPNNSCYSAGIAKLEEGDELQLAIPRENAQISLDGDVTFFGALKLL
The experiment in a line: flow cytometry, CHO-K1 cynoBLyS cells, antibody 2.67 nM. (In general: In flow cytometry, cells or beads pass a laser one at a time.)

Experiment [4] has as its target T2, cynomolgus BLyS (full length, arginine …). The experiment in a line: flow cytometry, CHO-K1 cynoBLyS cells, antibody 13.3 nM.
The target of experiment [5] is T3, human BLyS (full length, arginine to histidine at position 132) on CHO-K1 cells (human, UniProt Q9Y275 1-285).
T3 construct: also called hBLyS; CHO-K1 hBLyS
The experiment in a line: flow cytometry, CHO-K1 hBLyS cells, antibody 0 nM.

The target of experiment [6] is T2, cynomolgus BLyS (full length, arginine …). In words: flow cytometry, CHO-K1 cynoBLyS cells, antibody 0.107 nM.
Experiment [7] has as its target T3, human BLyS (full length, arginine to …). The experiment in a line: flow cytometry, CHO-K1 hBLyS cells, antibody 0.107 nM.
Experiment [8] concerns the target T2, cynomolgus BLyS (full length, arginine …). The experiment in a line: flow cytometry, CHO-K1 cynoBLyS cells, antibody 0 nM.
Experiment [9] has as its target T3, human BLyS (full length, arginine to …). In words: flow cytometry, CHO-K1 hBLyS cells, antibody 0.00427 nM.
Experiment [10] shares this target. The experiment in a line: flow cytometry, CHO-K1 hBLyS cells, antibody 0.0213 nM.
Experiment [11] has the same target. In words: flow cytometry, CHO-K1 hBLyS cells, antibody 13.3 nM.

mouse BLyS protein, sequence (Q9WU72 69-309): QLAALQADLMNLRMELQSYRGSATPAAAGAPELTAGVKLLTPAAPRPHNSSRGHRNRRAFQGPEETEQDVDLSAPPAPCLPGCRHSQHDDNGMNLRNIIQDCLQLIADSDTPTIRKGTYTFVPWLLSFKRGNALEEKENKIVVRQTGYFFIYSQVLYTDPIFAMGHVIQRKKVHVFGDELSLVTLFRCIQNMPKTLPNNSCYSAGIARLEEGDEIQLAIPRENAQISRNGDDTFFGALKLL
T3 sequence (Q9Y275 whole entry R130H): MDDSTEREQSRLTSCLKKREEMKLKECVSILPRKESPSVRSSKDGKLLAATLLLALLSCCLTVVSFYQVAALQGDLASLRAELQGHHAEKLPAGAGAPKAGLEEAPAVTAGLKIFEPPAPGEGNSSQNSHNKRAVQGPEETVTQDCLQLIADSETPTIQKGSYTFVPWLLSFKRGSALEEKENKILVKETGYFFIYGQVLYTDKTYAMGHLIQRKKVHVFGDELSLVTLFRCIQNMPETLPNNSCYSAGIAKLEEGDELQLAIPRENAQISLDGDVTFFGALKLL

In the experiment with human APRIL protein [1], mIgG Control (antibody) yielded an OD450 nm of 0.0587. In the experiment with mouse BLyS protein, this molecule registered a mouse B lymphocyte proliferation (OD450 nm), antibody 0 nM of 2190 OD450 nm; a mouse B lymphocyte proliferation (OD450 nm), antibody 0.000256 nM of 2110; a mouse B lymphocyte proliferation (OD450 nm), antibody 0.00128 nM of 2270 OD450 nm; a mouse B lymphocyte proliferation (OD450 nm), antibody 0.0064 nM of 2420 OD450 nm. In addition, in the experiment with mouse BLyS protein, the mouse B lymphocyte proliferation (OD450 nm), antibody 0.032 nM worked out at 2320 OD450 nm; the mouse B lymphocyte proliferation (OD450 nm), antibody 0.16 nM worked out at 2330 OD450 nm; the mouse B lymphocyte proliferation (OD450 nm), antibody 0.8 nM was determined as 2520 OD450 nm; the mouse B lymphocyte proliferation (OD450 nm), antibody 4 nM worked out at 2440 OD450 nm. In the experiment with mouse BLyS protein, this molecule registered a mouse B lymphocyte proliferation (OD450 nm), antibody 20 nM of 2360 OD450 nm and a mouse B lymphocyte proliferation (OD450 nm), antibody 100 nM of 2350 OD450 nm. For the same molecule, the OD450 nm with human APRIL protein [2] amounted to 0.0558.
For hIgG Control (antibody), the OD450 nm in the experiment with human APRIL protein [1] came out at 0.0693. Moreover, in the experiment with mouse BLyS protein, the mouse B lymphocyte proliferation (OD450 nm), antibody 0 nM is 2220 OD450 nm; the mouse B lymphocyte proliferation (OD450 nm), antibody 0.000256 nM is 2220; the mouse B lymphocyte proliferation (OD450 nm), antibody 0.00128 nM came out at 2240 OD450 nm; the mouse B lymphocyte proliferation (OD450 nm), antibody 0.0064 nM amounted to 2460 OD450 nm. Besides, in the experiment with mouse BLyS protein, the mouse B lymphocyte proliferation (OD450 nm), antibody 0.032 nM is 2500 OD450 nm; the mouse B lymphocyte proliferation (OD450 nm), antibody 0.16 nM came out at 2440 OD450 nm; the mouse B lymphocyte proliferation (OD450 nm), antibody 0.8 nM is 2510 OD450 nm; the mouse B lymphocyte proliferation (OD450 nm), antibody 4 nM worked out at 2580 OD450 nm. For the same molecule, in the experiment with mouse BLyS protein, the mouse B lymphocyte proliferation (OD450 nm), antibody 20 nM was determined as 2600 OD450 nm and the mouse B lymphocyte proliferation (OD450 nm), antibody 100 nM amounted to 2670 OD450 nm. Besides, the OD450 nm with human APRIL protein [2] came to 0.128.

B1: 8E7D9C7F5 (antibody, V domains shown)
VH: QVQLQQSGVELARPGASVKLSCKASGYTFTSYGISWVKQRTGQALEWIGEIYPRSGNTYYNEKFKGKATLTADKSSSTAYMELRSLTSEDSAVYFCARSGPITTLVATDYGMDYWGQGTSVTVSS
VL: DIVLTQSPASLAVSLGQRATISCRASKSVSTSSYSYMHWYQQKPGQPPKLLIKFASNLESGVPARFSGSGSGTDFTLNIHPVEEEDAATYYCQHSREFPYTFGGGTKLEIK
notes: Mouse hybridoma monoclonal antibody purified on Protein G
As to B1, the MFI in experiment [3] turned out to be 1130 MFI. In addition, the MFI in experiment [4] was 1170 MFI. In [5], this molecule registered an MFI of 152 MFI. In [6], the MFI was 477 MFI. In [7], this molecule yielded an MFI of 282 MFI. In addition, in [8], the MFI worked out at 19.8 MFI. In the experiment with mouse BLyS protein, the “mouse B lymphocyte proliferation (OD450 nm), antibody 0 nM” value amounted to 2100 OD450 nm; the “mouse B lymphocyte proliferation (OD450 nm), antibody 0.000256 nM” value was 2220 OD450 nm; the “mouse B lymphocyte proliferation (OD450 nm), antibody 0.00128 nM” value was found to be 2240 OD450 nm; the “mouse B lymphocyte proliferation (OD450 nm), antibody 0.0064 nM” value was 2250 OD450 nm. In the experiment with mouse BLyS protein, the “mouse B lymphocyte proliferation (OD450 nm), antibody 0.032 nM” value is 2320 OD450 nm; the “mouse B lymphocyte proliferation (OD450 nm), antibody 0.16 nM” value came to 2350 OD450 nm; the “mouse B lymphocyte proliferation (OD450 nm), antibody 0.8 nM” value is 2300 OD450 nm; the “mouse B lymphocyte proliferation (OD450 nm), antibody 4 nM” value is 2440 OD450 nm. In addition, in the experiment with mouse BLyS protein, the “mouse B lymphocyte proliferation (OD450 nm), antibody 20 nM” value was 2350 OD450 nm and the “mouse B lymphocyte proliferation (OD450 nm), antibody 100 nM” value amounted to 2360 OD450 nm. In experiment [9], this molecule came in with an MFI of 67.4 MFI. In experiment [10], this molecule returned an MFI of 122 MFI. In experiment [11], the MFI came to 570 MFI.

B2: 97A3C2H4 (antibody, V domains shown)
VH: EVKLVESGGGLVQPGGSLKLSCAASGFTFSTYTMSWVRQTPEKRLEWVAYISYGGGSTSYPDTVKGRFTISRDNAKNTLYLQMSSLKSEDTAIYYCTRHVTVVENSMDYWGQGTSVTVSS
VL: DILLTQSPDILSVSPGERVSFSCRASQSIGTSIHWYQQRTNGSPRLLIKYVSESFSGTPSRFSGSGSGTAFTLTINSVESEDIADYYCQQTHSWPWTFGGGTKLEIK
notes: Mouse hybridoma antibody purified on Protein G
Turning to B2, the OD450 nm in the experiment with human APRIL protein [1] stood at 0.0625; with human APRIL protein [2], 0.0617.

B3: L9G7 (antibody, human IgG1, V domains shown)
VH: QIQLVQSGAEVKKPGASVKVSCKASGYTFTSYGISWVRQAPGQGLEWMGWISAYNGNTNYAQKLQGRVTMTTDTSTSTAYMELRSLRSDDTAVYYCARTYYDILTGYYYYGMDVWGQGTTVTVSS
VL: EIVLTQSPGTLSLSPGERATLSCRTSQSVDTYLAWYQQKPGQAPRLLIYDASNRATGIPARFSGSGSGTDFTLTISSLEPEDFAVYYCQQRSNWPLTFGGGTKVEIK
In the case of B3, the results for the OD450 nm with human APRIL protein [1] and with human APRIL protein [2] were 0.161 and 0.0751, respectively.

B4: L1D12 (antibody, human IgG1, V domains shown)
VH: QVQLVQSGGGLVQPGGSLRLSCAASGFTVSSNYMSWVRQAPGKGLEWVSVIYSGGSTYYADSVKGRFTISRDNSKNTLYLQMNSLRAEDTAVYYCARGFHDILTGYGMDVWGQGTTVTVSS
VL: SSELTQDPAVSVALGQTVRITCQGDSLRNYYAGWYQQKPGQAPVLVIYGKNNRPSGIPDRFSGSSSGNTASLTITGTQAEDEADYYCSSRDNSGTHLVEFGGGTKLTVL
notes: also called LID12
Take B4: the values for the OD450 nm in the experiment with human APRIL protein [1] and with human APRIL protein [2] were 0.121 and 0.102, respectively.

B5: 111D10D6G3 (antibody, V domains shown)
VH: QVQLQQPGAELVKPGASVKMSCKASGYTFTRHWITWVKQRPGQGLEWIGDIFPGSGSINYNEKFKSEATLTVEKSSSTAYMQLSSLTSEDSAVYYCARGDVDVWGTGTTVTVSS
VL: DIQMTQSPSSLSASLGERVSLTCRASQEIRGYLSWLQQKPNGTIKRLIYAASTLDSGVPKRFSATRSGSDFSLTISSLESEDFADYYCLQYASYPFTFGSGTKLEIK
notes: as for B1
As for B5, the MFI in [3] was 510 MFI. Also, in [4], the MFI was found to be 524 MFI. Besides, the MFI in experiment [5] is 32.4 MFI. Further, the MFI in experiment [6] was 222 MFI. In experiment [7], this molecule came in with an MFI of 150 MFI. Also, the MFI in experiment [8] was 20.4 MFI. For the same molecule, in the experiment with mouse BLyS protein, the “mouse B lymphocyte proliferation (OD450 nm), antibody 0 nM” value is 2120 OD450 nm; the “mouse B lymphocyte proliferation (OD450 nm), antibody 0.000256 nM” value came out at 2300 OD450 nm; the “mouse B lymphocyte proliferation (OD450 nm), antibody 0.00128 nM” value came to 2150 OD450 nm; the “mouse B lymphocyte proliferation (OD450 nm), antibody 0.0064 nM” value worked out at 2130 OD450 nm. Moreover, in the experiment with mouse BLyS protein, the “mouse B lymphocyte proliferation (OD450 nm), antibody 0.032 nM” value came to 2320 OD450 nm; the “mouse B lymphocyte proliferation (OD450 nm), antibody 0.16 nM” value is 2290 OD450 nm; the “mouse B lymphocyte proliferation (OD450 nm), antibody 0.8 nM” value turned out to be 2520 OD450 nm; the “mouse B lymphocyte proliferation (OD450 nm), antibody 4 nM” value came to 2710 OD450 nm. Besides, in the experiment with mouse BLyS protein, the “mouse B lymphocyte proliferation (OD450 nm), antibody 20 nM” value worked out at 2540 OD450 nm and the “mouse B lymphocyte proliferation (OD450 nm), antibody 100 nM” value is 2360 OD450 nm. The molecule also showed an MFI in [9] of 41.2 MFI. The molecule further came in with an MFI in experiment [10] of 65.5 MFI. In [11], this molecule displayed an MFI of 276 MFI.

B6: 111D10D6G3 (antibody, V domains shown)
VH: B5 VH
VL: B5 VL
notes: as for B2
In the case of B6, the results for the OD450 nm with human APRIL protein [1] and with human APRIL protein [2] were 0.0538 and 0.0583, respectively.
